Measurements: PMC2563799
Read-outs that look alike come from different tables or passages of the source.

What was measured:
Experiment in all cases: thiol-disulfide exchange
[1] = target: (Ibβ-TM)-SS-(Ibα-TM)-SS-(Ibβ-TM) peptide complex (human)
[2] = target: (Ibβ-TM)-SS-(Ibα-TM)-SS-(Ibβ-TM) peptide complex (human); remark: listed apart in the source
[3] = target: (Ibβ-TM)-SS-(Ibα-TM)-SS-(Ibβ-TM) peptide complex (human); remark: listed apart in the source
Ibα-TM (human) [4] = target: Ibα-TM (human)
Ibα-TM (human) [5] = target: Ibα-TM (human); remark: listed apart in the source
Ibα-TM (human) [6] = target: Ibα-TM (human); remark: listed apart in the source

αβ2 production with IX-TM (% of Ibβ-TM) [1]	αβ2 production with IX-TM (% of Ibβ-TM) [2]	αβ2 production with IX-TM (% of Ibβ-TM) [3]	αβ2 production (% of Ibβ-TM) (Ibα-TM (human) [4])	αβ2 production (% of Ibβ-TM) (Ibα-TM (human) [5])	αβ2 production (% of Ibβ-TM) (Ibα-TM (human) [6])	Binder
41.2 % of Ibβ-TM	32.8 % of Ibβ-TM	29.4 % of Ibβ-TM				GSVRPGVLWDVALVAVAALGLALLAGLLNATTEALD [IX-TM]
			13.5 % of Ibβ-TM	27.7 % of Ibβ-TM	20.5 % of Ibβ-TM	Ibβ-TM (peptide) GSGGGLCWGALAAQLALLGLGLLHALLLVLLLSRLRRLRARARARAAARLSLTDPLVAERAGTDES
